Kd data for 2 molecules are collected here from patent US20180334494A1 (UNIVERSITY OF VIRGINIA PATENT FOUNDATION, published 2018).

This assay addresses T1, C-terminal domain of Zaire Ebola virus Nucleoprotein (NP^Ct) (Zaire Ebola virus, UniProt P18272 641-739).
T1 construct: also called Zaire NP^Ct; Zaire EBOV NP^Ct
Description: ITC. (In general: ITC needs no label: the signal is the heat of the interaction.)

For orientation: Kd means the constant that tells how readily two partners part at equilibrium.

T1 sequence (P18272 641-739, tags left off): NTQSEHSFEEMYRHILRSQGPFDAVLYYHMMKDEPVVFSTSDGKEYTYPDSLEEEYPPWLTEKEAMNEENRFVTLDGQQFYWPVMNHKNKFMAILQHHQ

B1: Fab 6 (Fab, V domains shown)
VH: EVQLVESGGGLVQPGGSLRLSCAASGFNVYYYYIHWVRQAPGKGLEWVASISPYYGYTSSYADSVKGRFTISADTSKNTAYLQMNSLRAEDTAVYYCARWSYDQSMSYKSGMDYWGQGTLVTVSS
VL: DIQMTQSPSSLSASVGDRVTITCRASQSVSSAVAWYQQKPGKAPKLLIYSASSLYSGVPSRFSGSRSGTDFTLTISSLQPEDFATYYCQQYSYSLVTFGQGTKVEIKR
In turn, B1 registered an equilibrium dissociation constant (Kd) of about 5 nM.

B2: Fab 20 (Fab, V domains shown)
VH: EVQLVESGGGLVQPGGSLRLSCAASGFNISYSSIHWVRQAPGKGLEWVASIYSYSGYTSYADSVKGRFTISADTSKNTAYLQMNSLRAEDTAVYYCARSYWYHVGSWHYTGMDYWGQGTLVTVSS
VL: DIQMTQSPSSLSASVGDRVTITCRASQSVSSAVAWYQQKPGKAPKLLIYSASSLYSGVPSRFSGSRSGTDFTLTISSLQPEDFATYYCQQSSSSLITFGQGTKVEIKR
For B2, the equilibrium dissociation constant (Kd) is about 5 nM.
